Data on two molecules can be found in patent publication US7129053 (DAKOCYTOMATION DENMARK A S, dated 2006).

This assay has as its target T1, H. pylori catalase (Helicobacter pylori, UniProt P77872 1-505).
T1 construct: mature; also called katalase; immunizing antigen
T1 sequence (looked up): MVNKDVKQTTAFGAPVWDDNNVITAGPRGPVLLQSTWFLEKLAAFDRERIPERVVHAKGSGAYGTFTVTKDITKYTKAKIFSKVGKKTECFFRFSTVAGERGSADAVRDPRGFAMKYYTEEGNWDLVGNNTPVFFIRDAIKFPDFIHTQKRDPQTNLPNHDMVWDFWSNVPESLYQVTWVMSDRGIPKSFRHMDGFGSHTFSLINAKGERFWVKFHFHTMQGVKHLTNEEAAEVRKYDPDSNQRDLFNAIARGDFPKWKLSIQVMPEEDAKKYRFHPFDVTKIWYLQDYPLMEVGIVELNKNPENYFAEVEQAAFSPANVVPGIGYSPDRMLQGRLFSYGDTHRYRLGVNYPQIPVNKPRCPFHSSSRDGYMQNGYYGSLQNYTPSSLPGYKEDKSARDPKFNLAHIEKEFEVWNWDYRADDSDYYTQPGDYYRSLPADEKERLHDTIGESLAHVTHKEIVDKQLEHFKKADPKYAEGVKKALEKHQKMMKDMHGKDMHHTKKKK
Put plainly: SPR (BIAcore), catalase amine-coupled on CM5 chip, antibody 20-670 nM in flow. As for the experimental part:
Catalase was Immobilized through amine coupling on the dextrane matrix of the BIAcore CM5 sensor chip. For the activation of the dextrane matrix 45 μl of a 1:1-mixture of 0.05 M N-hydroxysuccinimide (NHS) and 0.2 M 1-ethyl-3-3-dimethylaminopropyl)carbodiimide (EDC) solution was conducted over the sensor chip at a flow rate of 5 μl/min. Then, the catalase (35 μl; 50 μg/ml in 10 mM sodium acetate, pH 5.0) were bound to the dextrane matrix. The remaining NHS ester was deactivated with 1 M ethanolamine (35 μl). Catalase that was not covalently bound to the dextrane matrix was removed by regenerating the sensor chip with HCl (10 mM; 15 μl).
By adding the catalase-specific monoclonal antibodies, these were made react with immobilized catalase and the mass attachment to the detector was measured. Antibody solutions in different concentrations ranging from 20 to 670 nM were used. They were injected via the catalase immobilized on the sensor chip at a flow rate of 25 μl/min each.
The values for the rate constants of the adsorption ($kon$) and desorption ($koff$) of the antibody could be calculated (BIAevaluation software 3.0).
For orientation: SPR reads the build-up and loss of mass on a sensor chip optically.

B1: monoclonal antibody HP25.6m/1B5 (antibody, IgG1, V domains shown)
VH: EVQLQQSGAELVKPGASVKLSCTSSGFNIKDTYVHWMKQRPEQGLEWIGKIDPANGKTKYDPIFQAKATMTADASSNTAYLQLSSLTSEDTAVYYCALPIYYASSWFAYWGQGTLVTVSA
VL: DIVMTQSHKFMSTSVGDRVSITCKASQDVGTSVAWYQQKPGHSPKLLIYWTSTRHTGVPDRFTGSGSGTDFILTISNVQSEDLADYFCQQYSSSPTFGGGAKVEIK
notes: also called HP25.6m1/1B5
Molecule B1 returned a Kd of 0.681 nM, a koff of 3.86e-05 s⁻¹ and a kon of 56700 M⁻¹ s⁻¹.

B2: monoclonal antibody HP25.2m/2H10 (antibody, IgG2a, V domains shown)
VH: VQLLEQPGAELAKPGASVKMSCKASGYTFTNYWIHWVKQRPGQGLKWIGYINPATGSTSYNQDFQDRATLTADKSSTTAYMQLTSLTSEDSSVYYCAREGYDGFDSWGQGTTLTVSS
VL: ELVLTQSPAIMSASPGEKVTMTCSASSSVNYMYWYQQKSGTSPKRWIYDTSKLASGVPARFSGSGSGTSYSLTLSSMEAEDAATYYCQQWSSNPYTFGGGTKLEIK
notes: also called HP25.2m/2H10 (K10); HP25.2m/2Hallin (K10)
The molecule B2 registered a Kd of 0.271 nM, a koff of 3.9e-05 s⁻¹ and a kon of 144000 M⁻¹ s⁻¹.

What is called Kd is the equilibrium constant for the complex coming apart. A higher Kd goes with a looser complex. In general, koff refers to a measure of how fast the partners let go of each other. A lower koff goes with a long-lived complex. A word on the kon: it is the second-order rate constant of association. Lower therefore signals slower complex formation.
